Measured values published in patent US7582427B2, “Method of estimating drug metabolic activity by analyzing mutations in glucuronosyl transferase gene” (National University Corporation Shiga University of Medical …, priority 2002, dated 2009).

T1: UGT1A1 (Homo sapiens, UniProt P22309, Y486D)
T1 sequence (P22309 26-533 Y486D): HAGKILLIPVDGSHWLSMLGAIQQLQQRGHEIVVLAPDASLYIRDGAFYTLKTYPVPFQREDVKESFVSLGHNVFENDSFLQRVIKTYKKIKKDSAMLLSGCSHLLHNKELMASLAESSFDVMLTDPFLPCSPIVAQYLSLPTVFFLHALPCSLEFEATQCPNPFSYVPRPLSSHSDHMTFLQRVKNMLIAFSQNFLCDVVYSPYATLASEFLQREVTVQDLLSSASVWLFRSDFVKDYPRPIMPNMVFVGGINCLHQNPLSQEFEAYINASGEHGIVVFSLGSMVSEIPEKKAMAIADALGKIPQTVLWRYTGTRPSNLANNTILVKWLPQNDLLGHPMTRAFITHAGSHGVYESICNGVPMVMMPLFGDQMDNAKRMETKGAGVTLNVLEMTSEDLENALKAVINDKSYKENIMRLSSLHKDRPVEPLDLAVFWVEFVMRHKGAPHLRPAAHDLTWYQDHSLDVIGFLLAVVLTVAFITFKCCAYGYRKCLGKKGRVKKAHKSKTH


Experiments:
UGT1A1 molecule = experiment: UGT activity (glucuronidation) of recombinant UGT1A1 molecules, bilirubin as substrate; type: biochemical, human; settings: relative to normal
Source text: Further, it was shown that an abnormality of drug metabolism can be assayed for more effectively by combining this detection with detection of (a) mutation(s) in the regions of exons 1 to 4 other than the exon 5 region.

UGT1A1 [1] = target: T1, UGT1A1; experiment: Enzyme kinetics of glucuronidation of 2-amino-5-nitro-4-trifluoromethylphenol by UGT1A1, normal versus Y486D; type: biochemical
Source text: 2-amino-5-nitro-4-trifluoromethylphenol is glucuronidated by UGT. The enzymatic reactions in glucuronidation by the enzymes of each of the isoforms UGT1A1 and UGT1A6 between their normal molecules and molecules with Y486D mutation were compared, respectively.

UGT1A1 [2] = target: T1, UGT1A1; settings: fraction of normal enzyme activity, background report; cited from earlier work

maximum velocity relative to the maximum velocity of the wild type (UGT1A1 [1]; substrate 2-amino-5-nitro-4-trifluoromethylphenol)	Molecule	UGT relative activity (glucronidation activity) (UGT1A1 molecule) [%]	Km value relative to wild type (UGT1A1 [1]; with respect to 2-amino-5-nitro-4-trifluoromethylphenol)	Km value relative to wild type (UGT1A1 [1]; with respect to UDP-glucuronate)	enzyme activity relative to that of the normal enzyme (UGT1A1 [2])
about 12%	Y486D (homozygous): recombinant UGT1A1 molecule with Y486D mutation (exon 5), tyrosine replaced with aspartic acid at position 486 (protein, UniProt P22309 26-533, looked up, variant Y486D, homozygous) UDP-glucuronosyltransferase …: HAGKILLIPVDGSHWLSMLGAIQQLQQRGHEIVVLAPDASLYIRDGAFYTLKTYPVPFQREDVKESFVSLGHNVFENDSFLQRVIKTYKKIKKDSAMLLSGCSHLLHNKELMASLAESSFDVMLTDPFLPCSPIVAQYLSLPTVFFLHALPCSLEFEATQCPNPFSYVPRPLSSHSDHMTFLQRVKNMLIAFSQNFLCDVVYSPYATLASEFLQREVTVQDLLSSASVWLFRSDFVKDYPRPIMPNMVFVGGINCLHQNPLSQEFEAYINASGEHGIVVFSLGSMVSEIPEKKAMAIADALGKIPQTVLWRYTGTRPSNLANNTILVKWLPQNDLLGHPMTRAFITHAGSHGVYESICNGVPMVMMPLFGDQMDNAKRMETKGAGVTLNVLEMTSEDLENALKAVINDKSYKENIMRLSSLHKDRPVEPLDLAVFWVEFVMRHKGAPHLRPAAHDLTWYQDHSLDVIGFLLAVVLTVAFITFKCCAYGYRKCLGKKGRVKKAHKSKTH	8	about half of that of the wild type	equal to that of the wild type	1/13
	P229Q (heterozygous): recombinant UGT1A1 molecule corresponding to heterozygous P229Q mutation (protein, UniProt P22309 26-533, looked up, variant P229Q, heterozygous, recombinant UGT1A1 molecule corresponding to heterozygous P229Q mutation) UDP-glucuronosyltransferase …: HAGKILLIPVDGSHWLSMLGAIQQLQQRGHEIVVLAPDASLYIRDGAFYTLKTYPVPFQREDVKESFVSLGHNVFENDSFLQRVIKTYKKIKKDSAMLLSGCSHLLHNKELMASLAESSFDVMLTDPFLPCSPIVAQYLSLPTVFFLHALPCSLEFEATQCPNPFSYVPRPLSSHSDHMTFLQRVKNMLIAFSQNFLCDVVYSQYATLASEFLQREVTVQDLLSSASVWLFRSDFVKDYPRPIMPNMVFVGGINCLHQNPLSQEFEAYINASGEHGIVVFSLGSMVSEIPEKKAMAIADALGKIPQTVLWRYTGTRPSNLANNTILVKWLPQNDLLGHPMTRAFITHAGSHGVYESICNGVPMVMMPLFGDQMDNAKRMETKGAGVTLNVLEMTSEDLENALKAVINDKSYKENIMRLSSLHKDRPVEPLDLAVFWVEFVMRHKGAPHLRPAAHDLTWYQYHSLDVIGFLLAVVLTVAFITFKCCAYGYRKCLGKKGRVKKAHKSKTH	15			
	Y486D (heterozygous): recombinant UGT1A1 molecule corresponding to heterozygous Y486D mutation (protein, UniProt P22309 26-533, looked up, variant Y486D, heterozygous, recombinant UGT1A1 molecule corresponding to heterozygous Y486D mutation) UDP-glucuronosyltransferase …: HAGKILLIPVDGSHWLSMLGAIQQLQQRGHEIVVLAPDASLYIRDGAFYTLKTYPVPFQREDVKESFVSLGHNVFENDSFLQRVIKTYKKIKKDSAMLLSGCSHLLHNKELMASLAESSFDVMLTDPFLPCSPIVAQYLSLPTVFFLHALPCSLEFEATQCPNPFSYVPRPLSSHSDHMTFLQRVKNMLIAFSQNFLCDVVYSPYATLASEFLQREVTVQDLLSSASVWLFRSDFVKDYPRPIMPNMVFVGGINCLHQNPLSQEFEAYINASGEHGIVVFSLGSMVSEIPEKKAMAIADALGKIPQTVLWRYTGTRPSNLANNTILVKWLPQNDLLGHPMTRAFITHAGSHGVYESICNGVPMVMMPLFGDQMDNAKRMETKGAGVTLNVLEMTSEDLENALKAVINDKSYKENIMRLSSLHKDRPVEPLDLAVFWVEFVMRHKGAPHLRPAAHDLTWYQDHSLDVIGFLLAVVLTVAFITFKCCAYGYRKCLGKKGRVKKAHKSKTH	36			
